The target of experiment [1] is T1, Recombinant GFP-tagged Sov core NTD (aa 14–90), NTD Δ-SIMs (D. melanogaster, UniProt Q9W3W6 14-90).
T1 sequence (looked up): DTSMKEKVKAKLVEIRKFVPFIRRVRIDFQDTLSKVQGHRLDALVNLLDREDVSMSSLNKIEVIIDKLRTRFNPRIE
Put plainly: pull-down.

For experiment [2], the target named is T2, C-terminal His tagged Sov NTD (aa 14–90) (D. melanogaster, UniProt Q9W3W6 14-90).
T2 sequence (looked up): T1 sequence (looked up)
Put plainly: ITC.

* marks the point of attachment. Biotin = O=C1N[C@H]2[C@H](CS[C@H]2CCCCC(=O)*)N1; Ahx = NCCCCCC(=O)O

B1: Panx LxxLL peptide (aa 82–108), wildtype, biotinylated (peptide, UniProt Q9W2H9 82-108, looked up)
peptide: {Biotin-Ahx}-KMEPKIKEDADNAMLDSLLADPFENNS-NH2
SMILES: CC[C@H](C)[C@H](NC(=O)[C@H](CCCCN)NC(=O)[C@@H]1CCCN1C(=O)[C@H](CCC(=O)O)NC(=O)[C@H](CCSC)NC(=O)[C@H](CCCCN)NC(=O)CCCCCNC(=O)CCCC[C@@H]1SC[C@@H]2NC(=O)N[C@@H]21)C(=O)N[C@@H](CCCCN)C(=O)N[C@@H](CCC(=O)O)C(=O)N[C@@H](CC(=O)O)C(=O)N[C@@H](C)C(=O)N[C@@H](CC(=O)O)C(=O)N[C@@H](CC(N)=O)C(=O)N[C@@H](C)C(=O)N[C@@H](CCSC)C(=O)N[C@@H](CC(C)C)C(=O)N[C@@H](CC(=O)O)C(=O)N[C@@H](CO)C(=O)N[C@@H](CC(C)C)C(=O)N[C@@H](CC(C)C)C(=O)N[C@@H](C)C(=O)N[C@@H](CC(=O)O)C(=O)N1CCC[C@H]1C(=O)N[C@@H](Cc1ccccc1)C(=O)N[C@@H](CCC(=O)O)C(=O)N[C@@H](CC(N)=O)C(=O)N[C@@H](CC(N)=O)C(=O)N[C@@H](CO)C(N)=O
As to B1, the binding result in experiment [1] is “binds”.
Consider KMEPKIKEDADNAMLDSLLADPFENNS (peptide, UniProt Q9W2H9 82-108, looked up) [His-SUMO tagged Panx LxxLL peptide (aa 82–108), wildtype], for which the “stoichiometry N” value in experiment [2] worked out at 1.05 ± 0.03.

The values are drawn from PMC11749891 (Nature structural & molecular biology, 2022).
